Measurements: article PMC4546403

How the values were obtained:
Conditions in all cases: glycan lost; control: wild type dSmo
[1] = immunofluorescence, Hh-induced plasma membrane vs ER marker, Cl8
[2] = EndoH-resistant post-ER vs EndoH-sensitive ER fraction, western
[3] = biotin-maleimide free-thiol labelling, NeutrAvidin capture (disulfide integrity)
[4] = western blot of Cl8 cell lysates

Protein	localisation_or_trafficking [1]	localisation_or_trafficking [2]	stability_or_folding [3]	expression_or_secretion [4]
Drosophila Smo (dSmo): N213Q (protein) parent chain: MQYLNFPRMPNIMMFLEVAILCLWVVADASASSAKFGSTTPASAQQSDVELEPINGTLNYRLYAKKGRDDKPWFDGLDSRHIQCVRRARCYPTSNATNTCFGSKLPYELSSLDLTDFHTEKELNDKLNDYYALKHVPKCWAAIQPFLCAVFKPKCEKINGEDMVYLPSYEMCRITMEPCRILYNTTFFPKFLRCNETLFPTKCTNGARGMKFNGTGQCLSPLVPTDTSASYYPGIEGCGVRCKDPLYTDDEHRQIHKLIGWAGSICLLSNLFVVSTFFIDWKNANKYPAVIVFYINLCFLIACVGWLLQFTSGSREDIVCRKDGTLRHSEPTAGENLSCIVIFVLVYYFLTAGMVWFVFLTYAWHWRAMGHVQDRIDKKGSYFHLVAWSLPLVLTITTMAFSEVDGNSIVGICFVGYINHSMRAGLLLGPLCGVILIGGYFITRGMVMLFGLKHFANDIKSTSASNKIHLIIMRMGVCALLTLVFILVAIACHVTEFRHADEWAQSFRQFIICKISSVFEEKSSCRIENRPSVGVLQLHLLCLFSSGIVMSTWCWTPSSIETWKRYIRKKCGKEVVEEVKMPKHKVIAQTWAKRKDFEDKGRLSITLYNTHTDPVGLNFDVNDLNSSETNDISSTWAAYLPQCVKRRMALTGAATGNSSSHGPRKNSLDSEISVSVRHVSVESRRNSVDSQVSVKIAEMKTKVASRSRGKHGGSSSNRRTQRRRDYIAAATGKSSRRRESSTSVESQVIALKKTTYPNASHKVGVFAHHSSKKQHNYTSSMKRRTANAGLDPSILNEFLQKNGDFIFPFLQNQDMSSSSEEDNSRASQKIQDLNVVVKQQEISEDDHDGIKIEELPNSKQVALENFLKNIKKSNESNSNRHSRNSARSQSKKSQKRHLKNPAADLDFRKDCVKYRSNDSLSCSSEELDVALDVGSLLNSSFSGISMGKPHSRNSKTSCDVGIQANPFELVPSYGEDELQQAMRLLNAASRQRTEAANEDFGGTELQGLLGHSHRHQREPTFMSESDKLKMLLLPSK	no change	no change	–	–
Drosophila Smo (dSmo): N213Q,N336Q (protein) parent chain: MQYLNFPRMPNIMMFLEVAILCLWVVADASASSAKFGSTTPASAQQSDVELEPINGTLNYRLYAKKGRDDKPWFDGLDSRHIQCVRRARCYPTSNATNTCFGSKLPYELSSLDLTDFHTEKELNDKLNDYYALKHVPKCWAAIQPFLCAVFKPKCEKINGEDMVYLPSYEMCRITMEPCRILYNTTFFPKFLRCNETLFPTKCTNGARGMKFNGTGQCLSPLVPTDTSASYYPGIEGCGVRCKDPLYTDDEHRQIHKLIGWAGSICLLSNLFVVSTFFIDWKNANKYPAVIVFYINLCFLIACVGWLLQFTSGSREDIVCRKDGTLRHSEPTAGENLSCIVIFVLVYYFLTAGMVWFVFLTYAWHWRAMGHVQDRIDKKGSYFHLVAWSLPLVLTITTMAFSEVDGNSIVGICFVGYINHSMRAGLLLGPLCGVILIGGYFITRGMVMLFGLKHFANDIKSTSASNKIHLIIMRMGVCALLTLVFILVAIACHVTEFRHADEWAQSFRQFIICKISSVFEEKSSCRIENRPSVGVLQLHLLCLFSSGIVMSTWCWTPSSIETWKRYIRKKCGKEVVEEVKMPKHKVIAQTWAKRKDFEDKGRLSITLYNTHTDPVGLNFDVNDLNSSETNDISSTWAAYLPQCVKRRMALTGAATGNSSSHGPRKNSLDSEISVSVRHVSVESRRNSVDSQVSVKIAEMKTKVASRSRGKHGGSSSNRRTQRRRDYIAAATGKSSRRRESSTSVESQVIALKKTTYPNASHKVGVFAHHSSKKQHNYTSSMKRRTANAGLDPSILNEFLQKNGDFIFPFLQNQDMSSSSEEDNSRASQKIQDLNVVVKQQEISEDDHDGIKIEELPNSKQVALENFLKNIKKSNESNSNRHSRNSARSQSKKSQKRHLKNPAADLDFRKDCVKYRSNDSLSCSSEELDVALDVGSLLNSSFSGISMGKPHSRNSKTSCDVGIQANPFELVPSYGEDELQQAMRLLNAASRQRTEAANEDFGGTELQGLLGHSHRHQREPTFMSESDKLKMLLLPSK	decreases	decreases	decreases	–
Drosophila Smo (dSmo): dSmoN336Q (protein) parent chain: MQYLNFPRMPNIMMFLEVAILCLWVVADASASSAKFGSTTPASAQQSDVELEPINGTLNYRLYAKKGRDDKPWFDGLDSRHIQCVRRARCYPTSNATNTCFGSKLPYELSSLDLTDFHTEKELNDKLNDYYALKHVPKCWAAIQPFLCAVFKPKCEKINGEDMVYLPSYEMCRITMEPCRILYNTTFFPKFLRCNETLFPTKCTNGARGMKFNGTGQCLSPLVPTDTSASYYPGIEGCGVRCKDPLYTDDEHRQIHKLIGWAGSICLLSNLFVVSTFFIDWKNANKYPAVIVFYINLCFLIACVGWLLQFTSGSREDIVCRKDGTLRHSEPTAGENLSCIVIFVLVYYFLTAGMVWFVFLTYAWHWRAMGHVQDRIDKKGSYFHLVAWSLPLVLTITTMAFSEVDGNSIVGICFVGYINHSMRAGLLLGPLCGVILIGGYFITRGMVMLFGLKHFANDIKSTSASNKIHLIIMRMGVCALLTLVFILVAIACHVTEFRHADEWAQSFRQFIICKISSVFEEKSSCRIENRPSVGVLQLHLLCLFSSGIVMSTWCWTPSSIETWKRYIRKKCGKEVVEEVKMPKHKVIAQTWAKRKDFEDKGRLSITLYNTHTDPVGLNFDVNDLNSSETNDISSTWAAYLPQCVKRRMALTGAATGNSSSHGPRKNSLDSEISVSVRHVSVESRRNSVDSQVSVKIAEMKTKVASRSRGKHGGSSSNRRTQRRRDYIAAATGKSSRRRESSTSVESQVIALKKTTYPNASHKVGVFAHHSSKKQHNYTSSMKRRTANAGLDPSILNEFLQKNGDFIFPFLQNQDMSSSSEEDNSRASQKIQDLNVVVKQQEISEDDHDGIKIEELPNSKQVALENFLKNIKKSNESNSNRHSRNSARSQSKKSQKRHLKNPAADLDFRKDCVKYRSNDSLSCSSEELDVALDVGSLLNSSFSGISMGKPHSRNSKTSCDVGIQANPFELVPSYGEDELQQAMRLLNAASRQRTEAANEDFGGTELQGLLGHSHRHQREPTFMSESDKLKMLLLPSK	–	–	–	increases
Drosophila Smo (dSmo): N336Q (protein) parent chain: MQYLNFPRMPNIMMFLEVAILCLWVVADASASSAKFGSTTPASAQQSDVELEPINGTLNYRLYAKKGRDDKPWFDGLDSRHIQCVRRARCYPTSNATNTCFGSKLPYELSSLDLTDFHTEKELNDKLNDYYALKHVPKCWAAIQPFLCAVFKPKCEKINGEDMVYLPSYEMCRITMEPCRILYNTTFFPKFLRCNETLFPTKCTNGARGMKFNGTGQCLSPLVPTDTSASYYPGIEGCGVRCKDPLYTDDEHRQIHKLIGWAGSICLLSNLFVVSTFFIDWKNANKYPAVIVFYINLCFLIACVGWLLQFTSGSREDIVCRKDGTLRHSEPTAGENLSCIVIFVLVYYFLTAGMVWFVFLTYAWHWRAMGHVQDRIDKKGSYFHLVAWSLPLVLTITTMAFSEVDGNSIVGICFVGYINHSMRAGLLLGPLCGVILIGGYFITRGMVMLFGLKHFANDIKSTSASNKIHLIIMRMGVCALLTLVFILVAIACHVTEFRHADEWAQSFRQFIICKISSVFEEKSSCRIENRPSVGVLQLHLLCLFSSGIVMSTWCWTPSSIETWKRYIRKKCGKEVVEEVKMPKHKVIAQTWAKRKDFEDKGRLSITLYNTHTDPVGLNFDVNDLNSSETNDISSTWAAYLPQCVKRRMALTGAATGNSSSHGPRKNSLDSEISVSVRHVSVESRRNSVDSQVSVKIAEMKTKVASRSRGKHGGSSSNRRTQRRRDYIAAATGKSSRRRESSTSVESQVIALKKTTYPNASHKVGVFAHHSSKKQHNYTSSMKRRTANAGLDPSILNEFLQKNGDFIFPFLQNQDMSSSSEEDNSRASQKIQDLNVVVKQQEISEDDHDGIKIEELPNSKQVALENFLKNIKKSNESNSNRHSRNSARSQSKKSQKRHLKNPAADLDFRKDCVKYRSNDSLSCSSEELDVALDVGSLLNSSFSGISMGKPHSRNSKTSCDVGIQANPFELVPSYGEDELQQAMRLLNAASRQRTEAANEDFGGTELQGLLGHSHRHQREPTFMSESDKLKMLLLPSK	abolishes	decreases	decreases	–
